We go through 24 molecules from patent publication US20130143793A1 (ZEALAND PHARMA A S, published 2013).

Assay in all cases: cell-based or functional assay
Test [1] deals with T1, human CCK-B receptor (human, UniProt P32239 1-447).
T1 sequence (looked up): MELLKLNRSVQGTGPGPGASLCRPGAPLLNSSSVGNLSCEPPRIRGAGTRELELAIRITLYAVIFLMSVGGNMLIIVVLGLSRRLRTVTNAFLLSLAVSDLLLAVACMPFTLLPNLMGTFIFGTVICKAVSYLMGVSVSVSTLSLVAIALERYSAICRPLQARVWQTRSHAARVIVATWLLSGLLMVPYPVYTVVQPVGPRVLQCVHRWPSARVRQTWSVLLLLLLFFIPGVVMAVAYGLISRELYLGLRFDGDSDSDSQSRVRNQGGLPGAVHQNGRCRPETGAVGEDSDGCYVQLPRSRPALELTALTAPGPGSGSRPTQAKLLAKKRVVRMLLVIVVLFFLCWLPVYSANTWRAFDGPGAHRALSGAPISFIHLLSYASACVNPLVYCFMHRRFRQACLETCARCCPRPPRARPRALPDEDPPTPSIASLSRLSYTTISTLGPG

Test [2] has as its target T1, human CCK-B receptor. This is another data set of the same source.
The target in test [3] is T2, mouse CCK-B receptor (mouse, UniProt P56481 1-453).
T2 sequence (looked up): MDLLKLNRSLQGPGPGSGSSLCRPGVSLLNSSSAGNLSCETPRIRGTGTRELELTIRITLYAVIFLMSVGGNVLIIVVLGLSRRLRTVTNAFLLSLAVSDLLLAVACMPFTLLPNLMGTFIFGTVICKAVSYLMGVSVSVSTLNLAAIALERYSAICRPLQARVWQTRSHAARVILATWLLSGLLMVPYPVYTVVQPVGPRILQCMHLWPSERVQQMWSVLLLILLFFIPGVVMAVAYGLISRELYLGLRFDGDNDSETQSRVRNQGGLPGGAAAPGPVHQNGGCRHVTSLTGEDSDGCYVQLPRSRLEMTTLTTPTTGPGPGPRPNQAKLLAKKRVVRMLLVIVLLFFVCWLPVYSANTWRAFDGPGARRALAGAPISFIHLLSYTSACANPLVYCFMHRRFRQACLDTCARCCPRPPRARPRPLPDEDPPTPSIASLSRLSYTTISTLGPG

Test [4] concerns the target T2, mouse CCK-B receptor. This is another data set of the same source.
The target of test [5] is T3, human GLP-1 receptor (human, UniProt P43220 24-463).
Target sequence in this assay (P43220 24-463): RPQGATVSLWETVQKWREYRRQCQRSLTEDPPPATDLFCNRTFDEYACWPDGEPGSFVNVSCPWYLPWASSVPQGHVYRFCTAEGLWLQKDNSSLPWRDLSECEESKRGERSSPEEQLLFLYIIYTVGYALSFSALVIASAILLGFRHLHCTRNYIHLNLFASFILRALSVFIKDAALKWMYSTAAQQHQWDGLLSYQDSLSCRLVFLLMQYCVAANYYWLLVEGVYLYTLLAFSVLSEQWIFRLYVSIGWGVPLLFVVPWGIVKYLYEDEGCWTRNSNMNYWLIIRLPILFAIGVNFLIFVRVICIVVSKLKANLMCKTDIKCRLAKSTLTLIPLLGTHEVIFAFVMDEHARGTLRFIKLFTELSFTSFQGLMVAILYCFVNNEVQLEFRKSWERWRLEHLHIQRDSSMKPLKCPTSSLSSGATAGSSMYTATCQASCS
For test [6], the target named is T3, human GLP-1 receptor. This is another data set of the same source.
Target sequence in this assay (P43220 24-463): as above
Test [7] has as its target T3, human GLP-1 receptor. This is another data set of the same source.
For test [8], the target named is T1, human CCK-B receptor. This is another data set of the same source.

Where two headings read alike, the source gives them in different places. Bridge positions count the residues as written; N and C are the ends. Square brackets hold non-standard residues; d marks the D form. Ends that are not written are not given here.

In test [1], “[Lys(Hexadecanoyl-isoGlu)34]GLP-1(7-37)-Peg3-Peg3-[Leu4]Gastrin6 (peptide)” showed a hCCK-B R EC50 (p-ERK) of 18 nM.

With “GLP-1(7-36)-DBF-SKK-[Gln1,Leu15]Gastrin17 (peptide)”, the values for the hCCK-B R EC50 (p-ERK) in test [2] and in test [1] were 25.7 nM and 26 nM, respectively. For the same molecule, the mCCK-B R EC50 (p-ERK) in test [3] stood at 86.9 nM; in test [4], 87 nM.

“[Arg34,Lys(Hexadecanoyl-isoGlu)26]GLP-1(7-37)-Peg3-Peg3-[Leu4]Gastrin6 (peptide)” showed a hCCK-B R EC50 (p-ERK) in test [1] of 29 nM.

Turning to “GLP-1(7-36)-AAA-[Gln1,Leu15]Gastrin17 (peptide)”, the hGLP-1 R EC50 (cAMP) in test [5] stood at 0.114 nM; in test [6], 0.034 nM. The hCCK-B R EC50 (p-ERK) in test [2] was determined as 18.8 nM; in test [1] it was 19 nM. Further, the results for the mCCK-B R EC50 (p-ERK) in test [3] and in test [4] were 54.1 nM and 54 nM, respectively.

On to “[Arg26,34,Lys(Hexadecanoyl-isoGlu)36]GLP-1(7-37)-Peg3-Peg3-[Leu4]Gastrin6 (peptide)”, for which the hGLP-1 R EC50 (cAMP) in test [6] came out at 0.11 nM. In test [1], this molecule yielded a hCCK-B R EC50 (p-ERK) of 78 nM.

In the case of “GLP-1(7-36)-8Aoc-SKK-[Gln1,Leu15]Gastrin17 (peptide)”, the figures for the hCCK-B R EC50 (p-ERK) in test [2] and in test [1] were 51.9 nM and 52 nM, respectively. The mCCK-B R EC50 (p-ERK) is 82.5 nM in test [3] and 83 nM in test [4].

As to “GLP-1(7-36)-Peg3-SKK-[Gln1,Leu15]Gastrin17 (peptide)”, the hCCK-B R EC50 (p-ERK) is 8.76 nM in test [2] and 8.8 nM in test [1]. Besides, the mCCK-B R EC50 (p-ERK) was 51.1 nM in test [3] and 51 nM in test [4].

Take “[Aib8,Arg34,Lys(Hexadecanoyl-isoGlu)26]GLP-1(7-37)-Peg3-Peg3-[Leu4]Gastrin6 (peptide)”: the hGLP-1 R EC50 (cAMP) in test [6] worked out at 0.088 nM. Also, the hCCK-B R EC50 (p-ERK) in test [1] was determined as 59 nM.

In test [1], “[Arg34]GLP-1(7-37)-Peg3-Peg3-[Leu4]Gastrin6 (peptide)” returned a hCCK-B R EC50 (p-ERK) of 24 nM.

Consider “GLP-1(7-36)-Peg3-Peg3-[Gln1,Leu15]Gastrin17 (peptide)”, for which the results for the mCCK-B R EC50 (p-ERK) in test [3] and in test [4] were 58.3 nM and 58 nM, respectively. This molecule displayed a hCCK-B R EC50 (p-ERK) in test [1] of 8.2 nM.

For “GLP-1(7-36)-[Gln1,Leu15]Gastrin17 (peptide)”, the hGLP-1 R EC50 (cAMP) in test [5] was 0.145 nM; in test [6], 0.03 nM. The figures for the hCCK-B R EC50 (p-ERK) in test [2] and in test [1] were 25.9 nM and 26 nM, respectively. Further, the values for the mCCK-B R EC50 (p-ERK) in test [3] and in test [4] were 73.1 nM and 73 nM, respectively.

“GLP-1(7-36)-K-[Gln1,Leu15]Gastrin17 (peptide)”: the hGLP-1 R EC50 (cAMP) in test [5] worked out at 0.0842 nM; in test [6] it was 0.03 nM. Also, the hCCK-B R EC50 (p-ERK) in test [2] was 77.3 nM; in test [1], 77 nM. In addition, the mCCK-B R EC50 (p-ERK) in test [3] was found to be 114 nM; in test [4], 110 nM.

On to “GLP-1(7-36)-SKK-[Gln1,Leu15]Gastrin17 (peptide)”, for which the hGLP-1 R EC50 (cAMP) was 0.116 nM in test [5] and 0.031 nM in test [6]. Further, the hCCK-B R EC50 (p-ERK) in test [2] worked out at 15.6 nM; in test [1], 16 nM. Besides, the values for the mCCK-B R EC50 (p-ERK) in test [3] and in test [4] were 58.6 nM and 59 nM, respectively.

In the case of h[Gln1,Leu15]Gastrin17 (peptide), the mCCK-B R EC50 (p-ERK) in test [3] turned out to be 18.2 nM; in test [4] it was 18 nM.

“GLP-1(7-36)-8Aoc-8Aoc-[Gln1,Leu15]Gastrin17 (peptide)”: the values for the hCCK-B R EC50 (p-ERK) in test [2] and in test [1] were 12.8 nM and 13 nM, respectively. Besides, the mCCK-B R EC50 (p-ERK) was 71.4 nM in test [3] and 71 nM in test [4].

In the case of “[Aib8,Arg34]GLP-1(7-37)-Peg3-Peg3-[Leu4]Gastrin6 (peptide)”, the hGLP-1 R EC50 (cAMP) in test [6] is 0.043 nM. In test [1], this molecule showed a hCCK-B R EC50 (p-ERK) of 42 nM.

The molecule “[Lys(Hexadecanoyl-isoGlu)26]GLP-1(7-37)-Peg3-Peg3-[Leu4]Gastrin6 (peptide)” came in with a hCCK-B R EC50 (p-ERK) in test [1] of 26 nM.

On to “h[Leu15]Gastrin17 (from UniProt P01350 76-92) (peptide)”, for which, in test [1], the hCCK-B R EC50 (p-ERK) came to 2.4 nM.

As to “CCK-8 (from UniProt P06307 96-103) (peptide)”, the figures for the mCCK-B R EC50 (p-ERK) in test [3] and in test [4] were 163 nM and 160 nM, respectively.

In test [6], “[Arg26,34,Gly8,Lys(Hexadecanoyl-isoGlu)36]GLP-1(7-37)-Peg3-Peg3-[Leu4]Gastrin6 (peptide)” showed a hGLP-1 R EC50 (cAMP) of 0.12 nM. In test [1], the hCCK-B R EC50 (p-ERK) is 29 nM.

B1: [Leu14,Phe25]Exendin-4(1-27)-Peg3-Peg3-[Leu4]Gastrin6 (peptide)
peptide: HGEGTFTSDLSKQLEEEAVRLFIEFLKXXYGWLDF
modifications: Peg3-Peg3 linker; C-terminal amide
With B1, the “hGLP-1 R EC50 (cAMP)” value in test [7] is 0.026 nM. Also, in test [8], the “hCCK-B R EC50 (p-ERK)” value is 7.9 nM.

B2: [Tyr13,Phe25]Exendin-4(1-27)-Peg3-Peg3-[Leu4]Gastrin6 (peptide)
peptide: HGEGTFTSDLSKYMEEEAVRLFIEFLK[Peg3][Peg3]YGWLDF-NH2
Turning to B2, the “hGLP-1 R EC50 (cAMP)” value in test [7] stood at 0.035 nM. In addition, the “hCCK-B R EC50 (p-ERK)” value in test [8] stood at 8.4 nM.

B3: Side chain-cyclo([Lys20,Glu24]Exendin-4(1-28)-Peg3-Peg3-[Leu4]Gastrin6 (peptide)
peptide: HGEGTFTSDLSKQMEEEAVKLFIEWLKN[Peg3][Peg3]YGWLDF-NH2
modifications: lactam 20-24
For B3, the “hGLP-1 R EC50 (cAMP)” value in test [7] came to 0.032 nM. Further, the “hCCK-B R EC50 (p-ERK)” value in test [8] turned out to be 4 nM.

B4: [Lys16]Exendin-4(1-28)-Peg3-Peg3-[Leu4]Gastrin6 (peptide)
peptide: HGEGTFTSDLSKQMEKEAVRLFIEWLKN[Peg3][Peg3]YGWLDF-NH2
As to B4, the “hGLP-1 R EC50 (cAMP)” value in test [7] came out at 0.032 nM. For the same molecule, the “hCCK-B R EC50 (p-ERK)” value in test [8] turned out to be 15 nM.
